Test results from patent US7026443.
Read-outs that look alike come from different tables or passages of the source.

Assays:
HLA-A*1101 (human) [1] = molecular target: HLA-A*1101 (human)
HLA-A*0301 (human) [2] = assay: competition with 125I-labeled standard peptide for purified HLA, gel filtration
HLA-A*1101 (human) [3] = assay: as above
HLA-A*0301 (human) [4] = molecular target: HLA-A*0301 (human)
HLA-A*2402 (human) [5] = molecular target: HLA-A*2402 (human)
HLA-A*1101 (human) [6] = molecular target: HLA-A*1101 (human); remark: listed apart in the source
HLA-A*2402 (human) [7] = molecular target: HLA-A*2402 (human); remark: listed apart in the source
HLA-A*1101 (human) [8] = assay: competition with 125I-labelled standard peptide for purified HLA-A*1101, gel filtration
HLA-A*0301 (human) [9] = molecular target: HLA-A*0301 (human); remark: listed apart in the source

GLSFTDLVR (modifications not checked) [HPV18 E1 position 223 peptide …]
binding affinity ratio (IC50 of standard peptide / IC50 of test peptide) (HLA-A*1101 (human) [1]): 0.0025 | binding affinity ratio (IC50 of standard peptide / IC50 of test peptide) (HLA-A*0301 (human) [2]): 0.0009 | binding affinity ratio (IC50 of standard peptide / IC50 of test peptide) (HLA-A*1101 (human) [3]): 0.0025

FLKSNSQAK (modifications not checked) [HPV33 E1 385 peptide … (A03 supermotif peptide, 9 amino acids)]
relative binding ratio (IC50 of standard peptide / IC50 of test peptide) (HLA-A*0301 (human) [4]): 0.0013

LYNLLIRCL (modifications not checked) [HPV45 E6 position 98 peptide … (SEQ ID NO: 46118)]
binding affinity ratio (IC50 of standard peptide / IC50 of test peptide) (HLA-A*2402 (human) [5]): 0.0001

NSNAAAFLK (modifications not checked) [HPV18 E1 position 393 peptide …]
binding affinity ratio (IC50 of standard peptide / IC50 of test peptide) (HLA-A*0301 (human) [4]): 0.0057 | binding affinity ratio (IC50 of standard peptide / IC50 of test peptide) (HLA-A*1101 (human) [6]): 0.37

VYCKTVLEL (modifications not checked) [… (HPV18 E6, position 33, 9 amino acids)]
relative binding ratio (IC50 of standard peptide / IC50 of test peptide) (HLA-A*2402 (human) [5]): 0.022

FYSRIREL (modifications not checked) [HPV18 E6 71-78 peptide FYSRIREL]
relative binding ratio (IC50 of standard peptide / IC50 of test peptide) (ratio to standard peptide) (HLA-A*2402 (human) [7]): 0.026

VYRDGNPY (modifications not checked) [HPV16 E6 60 VYRDGNPY]
relative binding ratio (IC50 of standard peptide / IC50 of test peptide) (HLA-A*2402 (human) [7]): 0.0001

GVLILALLR (modifications not checked) [HPV18 E1 position 279 peptide …]
binding affinity ratio (IC50 of standard peptide / IC50 of test peptide) (HLA-A*0301 (human) [2]): 0.0058 | binding affinity ratio (IC50 of standard peptide / IC50 of test peptide) (HLA-A*1101 (human) [3]): 0.14 | binding affinity ratio (IC50 of standard peptide / IC50 of test peptide) (HLA-A*1101 (human) [8]): 0.14

IAQLKDLLK (modifications not checked) [HPV18 E1 position 198 peptide …]
binding affinity ratio (IC50 of standard peptide / IC50 of test peptide) (HLA-A*1101 (human) [1]): 0.0027 | binding affinity ratio (IC50 of standard peptide / IC50 of test peptide) (HLA-A*0301 (human) [2]): 0.0003 | binding affinity ratio (IC50 of standard peptide / IC50 of test peptide) (HLA-A*1101 (human) [3]): 0.0027

LYNLLIRCL (modifications not checked) [HPV45 E6 98 peptide … (SEQ ID NO: 15730)]
relative binding ratio (IC50 of standard peptide / IC50 of test peptide) (HLA-A*2402 (human) [7]): 0.0001

ISLNSGQKK (modifications not checked) [HPV18 E1 position 116 peptide …]
binding affinity ratio (IC50 of standard peptide / IC50 of test peptide) (HLA-A*0301 (human) [2]): 0.0003 | binding affinity ratio (IC50 of standard peptide / IC50 of test peptide) (HLA-A*1101 (human) [3]): 0.0026 | binding affinity ratio (IC50 of standard peptide / IC50 of test peptide) (HLA-A*1101 (human) [8]): 0.0026

SVAALYWYR (modifications not checked) [HPV18 E1 position 322 peptide …]
binding affinity ratio (IC50 of standard peptide / IC50 of test peptide) (HLA-A*0301 (human) [4]): 2.9 | binding affinity ratio (IC50 of standard peptide / IC50 of test peptide) (HLA-A*1101 (human) [6]): 8.8

ALFTAQEAK (modifications not checked) [HPV16 E1 peptide … (position 69, 9 amino acids)]
binding affinity ratio (IC50 of standard peptide / IC50 of test peptide) (HLA-A*0301 (human) [4]): 0.24 | binding affinity ratio (IC50 of standard peptide / IC50 of test peptide) (HLA-A*1101 (human) [6]): 0.4 | relative binding ratio (IC50 of standard peptide / IC50 of test peptide) (ratio to standard peptide) (HLA-A*0301 (human) [9]): 0.24

QMSMSQWIK (modifications not checked) [HPV16 E1 peptide … (position 419, 9 amino acids)]
binding affinity ratio (IC50 of the standard peptide / IC50 of the test peptide) (HLA-A*0301 (human) [9]): 0.0023 | relative binding ratio (IC50 of standard peptide / IC50 of test peptide) (HLA-A*0301 (human) [2]): 0.0023 | relative binding ratio (IC50 of standard peptide / IC50 of test peptide) (HLA-A*1101 (human) [3]): 0.026

FYSRIREL (modifications not checked) [HPV45 E6 71 peptide FYSRIREL (SEQ ID NO: 15714)]
relative binding ratio (IC50 of standard peptide / IC50 of test peptide) (HLA-A*2402 (human) [7]): 0.026

FYSRIREL (modifications not checked) [HPV45 E6 position 71 peptide FYSRIREL (SEQ ID NO: 46116)]
binding affinity ratio (IC50 of standard peptide / IC50 of test peptide) (HLA-A*2402 (human) [5]): 0.026

CIDFYSRIR (modifications not checked) [HPV45 E6 peptide … (position 68, 9 amino acids)]
relative binding ratio (IC50 of standard peptide / IC50 of test peptide) (ratio to standard peptide) (HLA-A*0301 (human) [4]): 0.0001 | relative binding ratio (IC50 of standard peptide / IC50 of test peptide) (ratio to standard peptide) (HLA-A*1101 (human) [6]): 0.0001 | binding affinity ratio (IC50 of standard peptide / IC50 of test peptide) (HLA-A*0301 (human) [9]): 0.001 | relative binding ratio (IC50 of standard peptide / IC50 of test peptide) (ratio to standard peptide) (HLA-A*1101 (human) [1]): 0.0001

NSNAAAFLK (modifications not checked) [HPV33 E1 379 peptide … (SEQ ID NO: 10558)]
binding affinity ratio (IC50 of standard peptide / IC50 of test peptide) (ratio relative to standard peptide) (HLA-A*0301 (human) [4]): 0.0057 | binding affinity ratio (IC50 of standard peptide / IC50 of test peptide) (ratio relative to standard peptide) (HLA-A*1101 (human) [6]): 0.37

LLVRYKCGK (modifications not checked) [HPV16 E1 peptide … (position 277, 9 amino acids)]
binding affinity ratio (IC50 of standard peptide / IC50 of test peptide) (HLA-A*0301 (human) [4]): 0.0043 | binding affinity ratio (IC50 of standard peptide / IC50 of test peptide) (HLA-A*1101 (human) [6]): 0.0033

LLIRCLRCQK (modifications not checked) [HPV45 E6 peptide … (position 101, 10 amino acids)]
relative binding ratio (IC50 of standard peptide / IC50 of test peptide) (ratio to standard peptide) (HLA-A*0301 (human) [4]): 0.047 | relative binding ratio (IC50 of standard peptide / IC50 of test peptide) (ratio to standard peptide) (HLA-A*1101 (human) [6]): 0.12 | binding affinity ratio (IC50 of standard peptide / IC50 of test peptide) (HLA-A*0301 (human) [9]): 0.047 | relative binding ratio (IC50 of standard peptide / IC50 of test peptide) (ratio to standard peptide) (HLA-A*1101 (human) [1]): 0.12

LYNLLIRCL (modifications not checked) [… (HPV18 E6, position 98, 9 amino acids)]
relative binding ratio (IC50 of standard peptide / IC50 of test peptide) (HLA-A*2402 (human) [5]): 0.0001

LIRCLRCQK (modifications not checked) [HPV45 E6 peptide … (position 102, 9 amino acids)]
relative binding ratio (IC50 of standard peptide / IC50 of test peptide) (ratio to standard peptide) (HLA-A*0301 (human) [4]): 0.019 | relative binding ratio (IC50 of standard peptide / IC50 of test peptide) (ratio to standard peptide) (HLA-A*1101 (human) [6]): 0.0012 | binding affinity ratio (IC50 of standard peptide / IC50 of test peptide) (HLA-A*0301 (human) [9]): 0.019 | relative binding ratio (IC50 of standard peptide / IC50 of test peptide) (ratio to standard peptide) (HLA-A*1101 (human) [1]): 0.0012

FLKSNSQAK (modifications not checked) [HPV31 E1 peptide … (position 372, 9 amino acids)]
relative binding ratio (IC50 of standard peptide / IC50 of test peptide) (ratio to standard peptide) (HLA-A*0301 (human) [4]): 0.0013
